In paper PMC4752221, “Nuclear Export of Pre-Ribosomal Subunits Requires Dbp5, but Not as an RNA-Helicase as for mRNA Export” (PLoS ONE, 2016):

Target: T1, His-Mtr2+Mex67 heterodimer (S. cerevisiae, UniProt Q99257 1-599; P34232 1-184)
T1 construct: Mex67 of S. cerevisiae, co-expressed with His-Mtr2; Mtr2 of S. cerevisiae, His-tagged; also called His-Mtr2 and Mex67; Mex67-Mtr2; source: E. coli BL21 DE3, co-expressed, purified (Ni-NTA agarose)
T1 sequence (looked up) 1: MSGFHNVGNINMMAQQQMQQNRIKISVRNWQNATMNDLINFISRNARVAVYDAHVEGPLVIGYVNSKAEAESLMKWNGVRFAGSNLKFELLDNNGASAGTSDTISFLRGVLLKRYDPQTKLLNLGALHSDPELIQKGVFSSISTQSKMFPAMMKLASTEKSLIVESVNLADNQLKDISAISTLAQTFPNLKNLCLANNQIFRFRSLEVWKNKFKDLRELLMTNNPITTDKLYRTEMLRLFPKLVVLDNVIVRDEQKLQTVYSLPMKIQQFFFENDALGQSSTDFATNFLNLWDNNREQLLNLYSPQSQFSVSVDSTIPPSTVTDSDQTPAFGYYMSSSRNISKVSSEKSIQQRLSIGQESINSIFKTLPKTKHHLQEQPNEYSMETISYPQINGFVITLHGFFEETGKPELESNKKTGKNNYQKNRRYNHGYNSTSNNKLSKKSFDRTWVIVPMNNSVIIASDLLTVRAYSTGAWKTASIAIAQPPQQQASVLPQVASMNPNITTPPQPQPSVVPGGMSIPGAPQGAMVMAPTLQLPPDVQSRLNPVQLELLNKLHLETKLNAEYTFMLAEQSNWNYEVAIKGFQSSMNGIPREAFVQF
T1 sequence (looked up) 2: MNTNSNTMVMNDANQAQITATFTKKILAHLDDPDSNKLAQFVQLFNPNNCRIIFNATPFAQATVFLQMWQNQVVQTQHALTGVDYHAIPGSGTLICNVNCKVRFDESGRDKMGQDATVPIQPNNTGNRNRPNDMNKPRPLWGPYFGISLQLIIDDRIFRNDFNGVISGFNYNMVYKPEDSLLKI
Test: pull-down; 100 μg purified GST-Dbp5 (mixed with bacterial lysate) held on Glutathione Sepharose 4B beads, washed, then 28 μg purified His-Mtr2+Mex67 added, 1 h at 4°C; 20 mM HEPES pH7.5, 100 mM NaCl, 4 mM MgCl2, 10% Glycerol, 0.1% NP-40, 1 mM DTT; with or without 1 mM ATP and 0.2 mg/ml RNase A (binding increased by ATP, not influenced by RNase A); Western blot and Coomassie
Conditions: both partners purified

binding result: binds
B1: GST-Dbp5 (natural protein, S. cerevisiae, UniProt P20449 1-482, looked up)
chain: MSDTKRDPADLLASLKIDNEKEDTSEVSTKETVKSQPEKTADSIKPAEKLVPKVEEKKTKQEDSNLISSEYEVKVKLADIQADPNSPLYSAKSFDELGLAPELLKGIYAMKFQKPSKIQERALPLLLHNPPRNMIAQSQSGTGKTAAFSLTMLTRVNPEDASPQAICLAPSRELARQTLEVVQEMGKFTKITSQLIVPDSFEKNKQINAQVIVGTPGTVLDLMRRKLMQLQKIKIFVLDEADNMLDQQGLGDQCIRVKRFLPKDTQLVLFSATFADAVRQYAKKIVPNANTLELQTNEVNVDAIKQLYMDCKNEADKFDVLTELYGLMTIGSSIIFVATKKTANVLYGKLKSEGHEVSILHGDLQTQERDRLIDDFREGRSKVLITTNVLARGIDIPTVSMVVNYDLPTLANGQADPATYIHRIGRTGRFGRKGVAISFVHDKNSFNILSAIQKYFGDIEMTRVPTDDWDEVEKIVKKVLKD
notes: Dbp5 (Rat8) of S. cerevisiae, GST-tagged, DBP5 in a pGEX backbone; also called recombinant GST-tagged Dbp5; source: E. coli Rosetta 2, purified (GSTrap 4B Glutathione Sepharose)
